The values below come from patent publication US20240116985A1 (published 2024).

The target of experiment [1] is T1, full-length beta-Catenin (Uniprot ID P35222) (Homo sapiens (Human), UniProt P35222 2-781).
T1 construct: also called bCat; B-Catenin
T1 sequence: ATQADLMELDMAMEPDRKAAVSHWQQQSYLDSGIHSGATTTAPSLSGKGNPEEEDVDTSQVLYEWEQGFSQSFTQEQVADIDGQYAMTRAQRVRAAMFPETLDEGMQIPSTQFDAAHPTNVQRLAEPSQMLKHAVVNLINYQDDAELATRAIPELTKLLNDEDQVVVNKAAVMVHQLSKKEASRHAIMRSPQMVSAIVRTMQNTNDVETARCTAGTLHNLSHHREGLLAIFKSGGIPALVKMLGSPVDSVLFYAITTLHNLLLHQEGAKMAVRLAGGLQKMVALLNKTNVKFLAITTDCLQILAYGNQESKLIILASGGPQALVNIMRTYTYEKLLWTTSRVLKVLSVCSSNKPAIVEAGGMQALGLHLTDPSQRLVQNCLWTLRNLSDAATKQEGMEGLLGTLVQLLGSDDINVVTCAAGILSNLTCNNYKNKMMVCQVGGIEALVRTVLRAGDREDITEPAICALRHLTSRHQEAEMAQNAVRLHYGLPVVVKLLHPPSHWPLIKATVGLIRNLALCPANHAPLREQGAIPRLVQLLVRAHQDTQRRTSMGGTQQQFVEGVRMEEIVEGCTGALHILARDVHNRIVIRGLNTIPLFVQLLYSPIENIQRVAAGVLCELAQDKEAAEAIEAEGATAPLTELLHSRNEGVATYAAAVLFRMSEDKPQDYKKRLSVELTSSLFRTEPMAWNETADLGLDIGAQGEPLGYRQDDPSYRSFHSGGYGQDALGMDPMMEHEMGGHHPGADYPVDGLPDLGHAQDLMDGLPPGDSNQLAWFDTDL
Briefly: fluorescence polarization competition; peptide titrated against 10 nM full-length beta-catenin with 10 nM 5FAM-TCF4(10-53) probe. Here is the method:
(§1) The plate was incubated protected from light for 60 minutes at 20° C. prior to read. Reads were performed on a CLARIOstar plate reader (BMG Labtech) in duplicate, and data were fitted to a 1:1 binding model with hill slope using an in-house script. All provided concentrations are final concentrations.
In general terms: Fluorescence polarisation rises when a labelled molecule tumbles more slowly, as on binding a larger partner.

Experiment [2] concerns the target T2, beta-catenin in DLD1 TCF/LEF luciferase reporter cells (UniProt P35222 2-781).
T2 sequence (looked up): T1 sequence
Briefly: cell-based or functional assay.

For experiment [3], the target named is T3, B-cat-Halo (beta-catenin HaloTag construct expressed in HEK293 cells) (UniProt P35222 1-781).
T3 sequence (looked up): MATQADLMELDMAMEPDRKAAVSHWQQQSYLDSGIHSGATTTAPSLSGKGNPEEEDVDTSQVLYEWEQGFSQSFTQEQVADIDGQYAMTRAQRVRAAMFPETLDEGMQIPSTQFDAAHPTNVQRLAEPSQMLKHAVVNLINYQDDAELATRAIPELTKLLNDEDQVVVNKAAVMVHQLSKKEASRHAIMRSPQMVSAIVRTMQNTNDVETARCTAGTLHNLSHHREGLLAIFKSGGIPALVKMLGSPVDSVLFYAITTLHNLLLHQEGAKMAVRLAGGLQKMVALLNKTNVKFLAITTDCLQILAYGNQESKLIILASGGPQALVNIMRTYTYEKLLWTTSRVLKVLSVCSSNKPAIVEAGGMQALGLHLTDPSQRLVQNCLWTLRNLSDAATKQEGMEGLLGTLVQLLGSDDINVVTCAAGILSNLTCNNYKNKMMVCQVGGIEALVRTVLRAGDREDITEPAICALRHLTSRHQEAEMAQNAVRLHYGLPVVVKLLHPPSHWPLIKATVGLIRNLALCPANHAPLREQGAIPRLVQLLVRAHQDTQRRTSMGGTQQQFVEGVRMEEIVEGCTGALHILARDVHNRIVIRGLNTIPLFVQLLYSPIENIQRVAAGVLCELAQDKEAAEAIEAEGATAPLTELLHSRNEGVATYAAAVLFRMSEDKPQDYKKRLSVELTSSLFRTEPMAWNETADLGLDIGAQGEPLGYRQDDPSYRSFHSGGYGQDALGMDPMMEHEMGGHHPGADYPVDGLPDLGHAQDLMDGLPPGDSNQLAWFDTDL
Put plainly: cell-based or functional assay.

Experiment [4] has as its target T4, full-length beta-Catenin (Uniprot ID P35222) (Homo sapiens (Human), UniProt P35222 2-781).
T4 construct: Used at 10 nM in the FP probe solution as 'full-length'; Also used here for the endogenous beta-catenin of the DLD1 TCF/LEF reporter cells (functional rows); also called bCat; B-Catenin
T4 sequence: T1 sequence
Put plainly: fluorescence polarization competition; 10 nM full-length beta-catenin + 10 nM 5FAM-TCF4 10-53 as competitor probe. Here is the method: as §1

Experiment [5] deals with T5, Bcat-Halo (UniProt P35222 1-781, HaloTag NanoBRET 618 Ligand bound to the Halo part).
T5 construct: Expressed in transfected HEK293 cells (NanoBRET acceptor construct); also called beta-catenin HaloTag fusion; not shown: HaloTag
T5 sequence (looked up): T3 sequence (looked up)
Briefly: NanoBRET Abs IC50, HEK293 cells transfected with Bcat-Halo and TCF4-Luc (competitor: TCF4-Luc); cellular assay.

For experiment [6], the target named is T6, B-cat-Halo (beta-catenin HaloTag construct expressed in HEK293 cells) (UniProt P35222 1-781).
T6 sequence (looked up): T3 sequence (looked up)
Briefly: cell-based or functional assay. This is another data set of the same source.

Experiment [7] deals with T7, beta-catenin in DLD1 TCF/LEF luciferase reporter cells (UniProt P35222 1-781).
T7 sequence (looked up): T3 sequence (looked up)
Put plainly: cell-based or functional assay.

For experiment [8], the target named is T8, full-length beta-Catenin (Uniprot ID P35222) (Homo sapiens (Human), UniProt P35222 1-781).
T8 construct: also called bCat; B-Catenin
T8 sequence: T3 sequence (looked up)
Briefly: fluorescence polarization competition; peptide titrated against full-length beta-catenin + 5FAM-TCF4(10-53). Here is the method:
as §1

The target of experiment [9] is T9, Bcat-Halo (UniProt P35222 1-781).
T9 sequence (looked up): T3 sequence (looked up)
Put plainly: cell-based or functional assay.

Experiment [10] concerns the target T10, beta-catenin in DLD1 TCF/LEF luciferase reporter cells (UniProt P35222 2-781).
T10 sequence (looked up): T1 sequence
Put plainly: cell-based or functional assay. This is another data set of the same source.

The IC50 is the concentration at which inhibition is half-maximal. The term EC50 denotes the concentration needed to bring the measured effect to its halfway point.

Starred links: 1 amine or outer side, 2 acyl side, 3 side chain; linkers in the order of their positions; H or OH if unused. Positions of bridges follow the written chain, without caps; N, C: chain ends. Non-standard residues stand in square brackets, D forms with d. Primed or numbered codes have the meaning given here. *: point of attachment. PyrS2″ = (S)-3-amino-1-((pent-4-en-1-yloxy)carbonyl)pyrrolidine-3-carboxylic acid (stapling residue), C=CCCCOC(=O)N1CC[C@@](N[*:1])(C(=O)[*:2])C1; B5(16) = 2-amino-2-(pent-4-en-1-yl)hept-6-enoic acid = 2,2-bis(4-pentenyl)glycine (stitching residue), C=CCCCC(CCCC=C)(N[*:1])C(=O)[*:2]; B5(4) = 2,2-bis(4-pentenyl)glycine = 2-amino-2-(pent-4-en-1-yl)hept-6-enoic acid (stitching residue), C=CCCCC(CCCC=C)(N[*:1])C(=O)[*:2]; B5(5) = 2,2-bis(4-pentenyl)glycine, 2-amino-2-(pent-4-en-1-yl)hept-6-enoic acid (stitching residue), C=CCCCC(CCCC=C)(N[*:1])C(=O)[*:2]; PyrS2 = (S)-3-amino-1-((pent-4-en-1-yloxy)carbonyl)pyrrolidine-3-carboxylic acid, C=CCCCOC(=O)N1CC[C@@](N[*:1])(C(=O)[*:2])C1; RdN = (R)-4-(((allyloxy)carbonyl)(methyl)amino)-2-amino-2-methylbutanoic acid, C=CCOC(=O)N(C)CC[C@@](C)(N[*:1])C(=O)[*:2]; PyrS = (S)-1-((allyloxy)carbonyl)-3-aminopyrrolidine-3-carboxylic acid, C=CCOC(=O)N1CC[C@@](N[*:1])(C(=O)[*:2])C1; (Morph)GlnR = (S)-2-amino-5-morpholino-5-oxopentanoic acid, O=C(CC[C@H](N[*:1])C(=O)[*:2])N1CCOCC1; Phe(3-COOH) = N[C@@H](Cc1cccc(C(=O)O)c1)C(=O)O; 2F3MeF = Cc1cccc(C[C@H](N[*:1])C(=O)[*:2])c1F; Phe(2-CF3) = N[C@@H](Cc1ccccc1C(F)(F)F)C(=O)O; S7 = C[C@@](CCCCCC=[*:3])(N[*:1])C(=O)[*:2]; Phe(2-Cl) = N[C@@H](Cc1ccccc1Cl)C(=O)O; Phe(4-F) = N[C@@H](Cc1ccc(F)cc1)C(=O)O; Met(O2) = CS(=O)(=O)CC[C@H](N)C(=O)O; Bta = N[C@@H](Cc1csc2ccccc12)C(=O)O; αAllylPro = C=CC[C@@]1(C(=O)O)CCCN1; tBuAla = CC(C)(C)C[C@H](N)C(=O)O; R8 = C=CCCCCCC[C@@](C)(N)C(=O)O; 3Thi = N[C@@H](Cc1ccsc1)C(=O)O; S8 = C=CCCCCCC[C@](C)(N)C(=O)O; PyrS2(4) = not defined here; Ms = CS(=O)(=O)*

In [1], Ac-FDA[R8]DDAA[Phe(4-F)]V[PyrS]FWQ-NH2 (staple 4-11) [I-78: Ac-Phe-Asp-Ala-R8-Asp-Asp-Ala-Ala-4FF-Val-PyrS-Phe-Trp-Gln-NH2 (stapled peptide)] returned an IC50 of 5000 nM.

B1: I-2061 (peptide)
peptide: Ac-[αAllylPro]D[tBuAla][B5(4)]D[Phe(3-COOH)]AAFL[PyrS2(4)][3Thi][Bta][Met(O2)]-NH2
modifications: staple 1-4, 4-11; reading uncertain; also: printed as Ac-PL3-Asp-Npg-B5-Asp-3COOHF-Ala-Ala-Phe-Leu-PyrS2-3Thi-BztA-Met2O-NH2
With B1, the “DLD1 4% Abs IC50” value in experiment [2] was 1800 nM. Also, in experiment [3], the “NanoBRET Abs IC50” value was found to be 1900 nM. As to Ac-[αAllylPro]DF[B5(16)]DDAAFN[PyrS2″][Phe(2-Cl)][Bta]Q-NH2 (staple 1-4, 4-11, Stapled (stitched) peptide composition) [I-1041], the EC50 in experiment [4] came to 8 nM. This molecule displayed an IC50 in [5] of more than 20000 nM. In the same order, the values of Ac-[αAllylPro]DF[B5(4)]DDAAFN[PyrS2″][Phe(2-Cl)][Bta]S-NH2 (staple 1-4, 4-11, Stapled (stitched) peptide composition) [I-1047] are 5 nM and 28400 nM. In the same order, the values of Ac-[αAllylPro]DF[B5(16)]DDAAFS[PyrS2″][Phe(2-Cl)][Bta]Q-NH2 (staple 1-4, 4-11, Stapled (stitched) peptide composition) [I-1045] are 5 nM and 23900 nM.

B2: I-2520 (peptide)
peptide: Ac-[αAllylPro]D[tBuAla][B5(4)]DXQAFL[PyrS2][Phe(2-CF3)][Bta]A-NH2
modifications: staple 1-4, 4-11; not fully specified (residue 6); printed as Ac-PL3-Asp-Npg-B5-Asp-[CH2CChCO2H]TriAzDap-Gln-Ala-Phe-Leu-PyrS2-2F3MeF-BztA-Ala-NH2
As for B2, the “NanoBRET Abs IC50 (uM); Bcat-Halo / TCF4-Luc in HEK293 cells” value in experiment [6] was determined as 5.9 µM. Also, the “DLD1 4% Abs IC50 (uM); TCF/LEF luciferase reporter assay” value in [7] worked out at 5.7 µM.

In experiment [1], Ac-ADI[RdN]DEAAFQ[S7]FWH-NH2 (staple 4-11) [I-66: Ac-Ala-Asp-Ile-RdN-Asp-Glu-Ala-Ala-Phe-Gln-S7-Phe-Trp-His-NH2 (stapled peptide)] registered an IC50 of 1090 nM.

B3: I-711 (peptide)
peptide: Ms-[αAllylPro]DI[B5(5)]DEAAFQ[S8]F[Bta]Q-NH2
modifications: staple 1-4, 4-11
notes: separate staple-isomer composition (later eluting HPLC peak); also called MeSO2-PL3-Asp-Ile-B5-Asp-Glu-Ala-Ala-Phe-Gln-S8-Phe-BztA-Gln-NH2
On to B3, for which, in [8], the IC50 came to 88 nM. For Ac-[αAllylPro]D[tBuAla][B5(4)]D[Phe(3-COOH)][(AcPpz)GlnR]AFL[PyrS2″][2F3MeF][Bta]A-NH2 (staple 1-4, 4-11) [I-2319], the “NanoBRET Abs IC50” value in [9] was determined as 1000 nM. Besides, in experiment [10], the “DLD1 4% Abs IC50” value stood at 1700 nM. For Ac-[αAllylPro]D[tBuAla][B5(4)]D[Phe(3-COOH)][(Morph)GlnR]AFL[PyrS2″][2F3MeF][Bta]A-NH2 (staple 1-4, 4-11) [I-2315] the same measures were 1200 nM and 1500 nM.
